One protein from article PMC6068260, “Functional Analysis of a Carboxylesterase Gene Associated With Isoprocarb and Cyhalothrin Resistance in Rhopalosiphum padi (L.)” (Frontiers in Physiology, 2018) can be followed below.

Substrate in this data set: CC(=O)Oc1cccc2ccccc12
The experiment in a line: purified protein. The format is biochemical, Rhopalosiphum padi. To be noted: Tris-HCl buffer, 3 mM Fast Blue RR salt, 5 min.

B1: RpCarE (Rhopalosiphum padi) (protein)
chain: MEVVIEQGVLKGVQNKTLLSNKPYVSFLGIPYAKPPVNDLRFKPPVKHPGWSGILKAISERDRCMQYAFVANDIIGSEDCLYLNVLVPQNGLNEKLAVMIFIHGGAFNYGCGSVNEQSPDYLLDENVIVITLNYRLNALGFLNLDIDECPGNMGLKDQLFAIKWIKANIAAFGGDVNNITIFGESAGSVSVHYHTMSPQSTGLFQKAIMQSGCAFNPWALNENHRVAAFKLAKNLGCLSSDPNEIVKYLRNVSAIDLVKETKFKDDNGFLDYKFVPSIESDMVSDRFLPAHPKTLATIASPVPVIVGLNSMEGIIALSEYRLSKFSDLQITDEISKLFNNQYSTEVISKIKDFYFNKCNNNCEIAKLENICHLHSDVFFVKDFYRGFDHFLKQNVTPVYIYEFKFDGELNAIKNWIFATRPVLRHALKGACHADEIYYLFRNNLSGVVPKPNSPELEMCKAMGKMWSNFAKTGDPNSLDLSFKWNYASASDTKYLSIDGDRTQMTQGMINNNRSRFWKDLIKESIV
notes: pET-28a His6-tag fusion (tag kept), E. coli BL21(DE3); catalytic triad S185-E312-H432
Take B1: the Km turned out to be 42.98 ± 6.73 µM, the kcat turned out to be 5.50 ± 0.28 s⁻¹ and the kcat/Km stood at 130000 M⁻¹ s⁻¹.
